Ends that are not written are not given here.
Legend:
NHEK cells [1] = test: In vitro model of psoriasis: IL-8 release by keratinocytes stimulated by IL-17, OSM and TNF-α; type: cell-based, human; conditions: NHEK stimulated by IL-17, OSM and TNF-α (3 ng/ml each); 10 μM; 48 h
Protocol: (§1) FIG. 30: Inhibition of Il-8 production by keratinocytes stimulated by Il-17, OSM and TNF-α. NHEK cells were stimulated by a combination of Il-17, OSM and TNF-α (3 ng/ml each) and treated with JAK inhibitor at 10 μM (positive control) or Fg1.1.1 at concentrations ranging from 1.52 to 12.2 μM for 48 h. Measurement of IL-8 production was realized by ELISA and cytotoxicity was determined by the MTT assay as described in Materials and Methods Control experiments were done with untreated and unstimulated NHEK cells (cell alone) and with untreated NHEK stimulated by the combination of Il-17, OSM and TNF-α. Data are means±S.D. of three individual experiments. Statistical significance is indicated by * (P<0.05), ** (P<0.01), and *** (P<0.001), respectively.
(§2) For experiences using an in vitro model of psoriasis, cutaneous primary human keratinocytes (NHDK) were grown in culture medium for 24 hours. […]
(§3) Human IL-1ß, IL-8, IL-12, hBD-2, and TNF-α protein concentration was measured in the supernatants of stimulated cells using various ELISA Set kits (Ready-Set-Go kit from eBioscience for acne experiments, and for psoriasis experiments the Duo set IL-8 kit from R&D Systems and the BD-2 Human Development (hBD-2) from Peprotech) according to the manufacturer's instructions. […] The optical density was determined at 450 nm at a wavelength correction of 540 nm. […]

NHEK cells [2] = test: In vitro model of psoriasis: hBD-2 release by keratinocytes stimulated by IL-17, OSM and TNF-α; type: cell-based, human; conditions: NHEK stimulated by IL-17, OSM and TNF-α (5 ng/ml each); 10 μM; 72 h
Protocol: as §1, with “31:” for “30:”, “hBD-2” for “Il-8”, “(5” for “(3”, “72” for “48”, “hBD-2” for “IL-8”
as §2, §3

NHEK cells [3] = test: In vitro model of psoriasis: cytotoxicity by MTT assay; type: cell-based, human; conditions: all concentrations tested (1.52 to 12.2 μM)
Protocol: as §1, with “Statistical significance is indicated by * (P<0.05), ** (P<0.01), and *** (P<0.001), respectively.” left out
FIG. 31: Inhibition of hBD-2 production by keratinocytes stimulated by Il-17, OSM and TNF-α. […] Measurement of hBD-2 production was realized by ELISA and cytotoxicity was determined by the MTT assay as described in Materials and Methods Control experiments were done with untreated and unstimulated NHEK cells (cell alone) and with untreated NHEK stimulated by the combination of Il-17, OSM and TNF-α. […]
Crystal violet staining was used to determine the number of adherent cells in 96-well plates. […] After washing with PBS, 100% methanol was added, and the absorbance was measured spectrophotometrically at 540 nm on an ELISA multiwell reader. […] After thorough mixing, the absorbance was measured at 540 nm.

[4] = test system: HaCaT, NHDK, ThP1, MRC5 and HDF cell lines; test: Cell viability (MTT) after treatment with Fg1 and Fg2 recombinant peptides; type: cell-based, human; conditions: all 5 cell lines; 0.22 to 7 mM for 18 h at 37° C.
Protocol: FIG. 10: Evaluation of cell viability after treatment with the Fg1 and Fg2 recombinant peptides. Human immortalized and primary keratinocyte cell lines HaCaT and NHDK; immortalized monocytes cell line ThP1, and immortalized and primary fibroblast cell lines MRCS and HDF were incubated with Fg1 and Fg2 recombinant peptides with concentrations ranging from 0.22 to 7 mM for 18 h at 37° C. Cell viability was assessed using the MTT assay as described in Materials and Methods.
Crystal violet staining was used to determine the number of adherent cells in 96-well plates. Briefly, after incubation with the test compound, the culture medium was discarded and the cells were incubated with a 0.05% crystal violet solution (Sigma) for 30 min at room temperature. After washing with PBS, 100% methanol was added, and the absorbance was measured spectrophotometrically at 540 nm on an ELISA multiwell reader. The MTT ([…]) assay was performed to test cell viability in 96-well plates. […] After thorough mixing, the absorbance was measured at 540 nm.
Whole P. acnes bacteria are labelled by biotinylation, pre-treated or not with the peptides and contacted with the various cell lines. After removal of the unfixed bacteria, the adhesion activity was measured spectrophotometrically by using the streptavidin-peroxidase conjugate and a chromogenic substrate.

Pfg = test: Western ligand blot with biotinylated Pfg; type: binding, Propionibacterium acnes; conditions: E. coli total protein after IPTG induction, 12.5% SDS-PAGE; biotinylated Pfg 0.1 μg/ml
Protocol: FIG. 5: Binding of P. acnes surface proteins to fibrinogen. (A) Various quantities of human fibrinogen (hFg) and bovine fibrinogen (bFg) were immobilized onto a 96-well polystyrene plate at 4° C. for 18 h and incubated with biotinylated Pfg at 0.1 μg/ml for 2 h at 23° C. Bovine serum albumin (BSA) was used as negative control. Bound material was detected by using the HRP-streptavidin conjugate. Peroxidase activity was measured by using the ABTS substrate at 405 nm. Proteins (10 μg per lane) were separated by 10% SDS-PAGE and detected by (B) Commassie blue staining, and transferred to nitrocellulose membrane and incubated with (C) HRP-streptavidine alone, and (D) biotinylated Pfg (0.1 μg/ml). Lanes 1: molecular weight standards. Lane 2: BSA. Lane 3: hFg. Lane 4: bFg.
FIG. 8: Cloning of Bß human fibrinogen fragments and binding with Pfg. (A) Cloning and expression of recombinant human Bß fibrinogen fragments Fg1, Fg2, Fg3 and Fg4. Fibrinogen fragments were obtained by RT-PCR and expression plasmids were constructed as described in Materials and Methods. (B) GST-fused proteins were expressed in E. coli, fractionated by 12.5% SDS-PAGE, and detected by Coomassie blue staining (B), and incubated with biotinylated Pfg (0.1 μg/ml) as described in Materials and Methods (C).
To characterize the interaction between P. acnes and ligands, we used biotinylated molecules in quantitative and qualitative assays. In a first set of assays, ECM ligands (fibrinogen, collagens I, IV, VI and VIII) were used as labelled proteins with biotin. In a second set of assays, P. acnes surface proteins (total extract and purified Pfg) were biotinylated. For quantitative analysis, unlabeled protein were diluted into 50 mM carbonate-bicarbonate, pH 9.6 buffer to yield a protein concentration ranging from 0.01 to 50 μg/ml, and then immobilized to 96-well polystyrene plates at 4° C. overnight. The wells were rinsed three times with 0.2 ml of PBS containing 0.05% Tween-20 (PBS-Tween). Biotinylated proteins (0.01 to 16 μg/ml in PBS-Tween) were added to the wells and incubated at room temperature for 1 h. The wells were rinsed three times with 0.2 ml of PBS-Tween. Peroxidase conjugated to streptavidin (0.5 μg/ml in PBS-Tween) was added and incubated for 30 min at room temperature. After washing, bound peroxidase was detected using the chromogenic peroxidase substrate ABTS. For qualitative analysis, unlabelled protein (10-75 μg per lane) were separated by SDS-PAGE and then transferred to nitrocellulose membranes (0.45 μm pore size), as described previously (Towbin, 1979). Membranes were then saturated overnight at 4° C. in PBS containing 5% BSA, 0.05% Tween-20 (PBT buffer). Binding activity was detected by incubating the membranes with 20 ml of PBT containing biotinylated proteins (0.1 μg/ml) for 2 h at room temperature followed by three washes with PBT. Bound biotinylated proteins were detected by incubating the membrane with peroxidase conjugated to streptavidin (0.5 μg/ml in PBT) for 1 h at room temperature. After washing, bound peroxidase activity was detected using 3,3′-diaminobenzidine in the presence of CoCl2 and H2O2 (Harlow and Lane, 1988).
Since it was shown that Pfg is recognized by fibrinogen, this ECM ligand was used to analyze the nature of this interaction. First it was analyzed the ability of fibrinogen to be recognized by purified Pfg (FIG. 5). Human and bovine Fg (hFg, bFg) were immobilized to polysterene plate and the binding activity of biotinylated Pfg was measured. […] It has been shown that fibrinogen is a glycoprotein containing both N- and O-linked glycans (Debeire 1985; Reid Townsend 1982; L'Hôte 1996). […] In parallel, deglycosylation was assessed by visualization of a shift in the mobility after electrophoresis separation and Coomassie blue staining (FIG. 6A, lanes 3 and 5) and also by using the RCA-I plant lectin able to recognize ß-linked galactosyl residues in terminal position (FIG. 6C) (Green, 1987). […]

P. acnes RON strain = test: Adhesion assay, biotinylated P. acnes binding to monocytes (ThP1); type: cell-based, Propionibacterium acnes; conditions: monocytes (THP-1); bacteria pretreated 0.87 to 7 μM, 1 h at 37° C.
Protocol: FIG. 13: Dose-dependent inhibition of P. acnes RON binding to monocytes cell line. Biotinylated P. acnes RON strain at concentrations adjusted to 0.1 of absorbance at 600 nm was pre-treated with the recombinant peptides Fg1 and Fg2 and incubated 1 h at 37° C. with the human immortalized monocytes cell line ThP1. After removal of unbound bacteria, adhesion activity was detected at 410 nm. Data are means±S.D. of three separate experiments. Statistical significance is indicated by * (P<0.05), ** (P<0.01), *** (P<0.001), and **** (P<0.0001), respectively.
The bacterial suspension was adjusted at 600 nm to the desired concentration, pretreated with peptides Fg1 and Fg2 at the final concentration ranging from 0.87 to 7 μM for 1 h at 37° C. and deposited on the previously saturated cells with a solution of PBS SVF 2% for 2 h. After incubation for 1 h at 37° C., unbound bacteria are removed by 3 washes with PBS and fixed bacteria are detected by a streptavidin-peroxidase solution of 0.5 μg/ml for 30 min.
Whole P. acnes bacteria are labelled by biotinylation, pre-treated or not with the peptides and contacted with the various cell lines. After removal of the unfixed bacteria, the adhesion activity was measured spectrophotometrically by using the streptavidin-peroxidase conjugate and a chromogenic substrate. […]

[5] = test system: Pfg binding to fibrinogen; test: Inhibition of biotinylated Pfg binding to coated fibrinogen; set-up: species or system Propionibacterium acnes; conditions: biotinylated Pfg pretreated with increasing amount of recombinant peptide 1 h at 37° C.; fibrinogen coated 25 μg per well
Protocol: FIG. 9: Dose-dependent inhibition of biotinylated Pfg binding to fibrinogen by fibrinogen-derived peptide. Biotinylated PFg (0.4 mg) was pretreated with increasing amount of recombinant peptides Fg1 (♦), Fg2 (▪) or BSA as control (●) for 1 h at 37° C., and the binding activity to coated fibrinogen on polystyrene plate (25 μg per well) was evaluated. Results are expressed as mean±SD. Each point was done in quadruplet.
Since it has been shown that only Fg1 was able to recognize Pfg, biotinylated Pfg was pre-treated with various concentrations of purified Fg1 and tested its ability to recognize immobilized fibrinogen. Fg2 and BSA were used as neative controls (FIG. 9).

Jak Inhibitor I
Inhibition of IL-8 release (NHEK cells [1]): 67%
Inhibition of hBD-2 release (NHEK cells [2]): 80%

LLLCVFLVKSQGVND [Fg1.1.1, LLLCVFLVKSQGVND]
Effect on cell viability (MTT) (NHEK cells [3]): no effect on cell viability

B1: DAGGCLHADPDLGVLCPTGCQLQEALLQQERPIRNSVDELNNNVEAVSQTSSSSFQYMYLLKDLWQKRQKQVKDNENVVNEYSSELEKHQLYIDETVNSNIPTNLRVLRSILENLRSKIQKLESDVSAQMEYCRTPCTVSCNIPVVS (protein)
chain: DAGGCLHADPDLGVLCPTGCQLQEALLQQERPIRNSVDELNNNVEAVSQTSSSSFQYMYLLKDLWQKRQKQVKDNENVVNEYSSELEKHQLYIDETVNSNIPTNLRVLRSILENLRSKIQKLESDVSAQMEYCRTPCTVSCNIPVVS
modifications: fragment Fg2
notes: recombinant fragment of Bß sub-unit of human fibrinogen, used as negative control
Cytotoxic activity (cell viability, MTT) [4]: no cytotoxic activity
Recognition of GST-fused recombinant Bß fibrinogen fragments by biotinylated Pfg (Pfg): only Fg1 was recognized
Inhibition of adhesion of P. acnes RON strain (P. acnes RON strain): no anti-adhesive activity
Inhibition of the recognition between Pfg and human fibrinogen [5]: did not

From US10323078B2, “Isolated peptides and fragments thereof from fibrinogen for use as drugs, particularly in skin inflammatory diseases” (Universite Paris Descartes, priority 2015, dated 2019)
